The record followed here is publication PMC9945957 (Proceedings of the National Academy of Sciences of the …, 2023).

First the molecules themselves.
T1: Shr^H1H2 (Shr residues S26 to Q285, both HIDs) (Streptococcus pyogenes, UniProt Q99YA0 26-285)
T1 sequence: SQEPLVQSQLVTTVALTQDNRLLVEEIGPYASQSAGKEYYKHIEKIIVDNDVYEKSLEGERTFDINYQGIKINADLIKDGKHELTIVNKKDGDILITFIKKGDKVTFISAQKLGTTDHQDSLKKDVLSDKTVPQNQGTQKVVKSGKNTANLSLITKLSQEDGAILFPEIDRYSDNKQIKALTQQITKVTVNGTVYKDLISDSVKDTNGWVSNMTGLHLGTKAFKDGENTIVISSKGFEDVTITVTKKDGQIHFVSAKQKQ

B1: Shr^H2 M238A (domain or fragment)
chain: NLSLITKLSQEDGAILFPEIDRYSDNKQIKALTQQITKVTVNGTVYKDLISDSVKDTNGWVSNATGLHLGTKAFKDGENTIVISSKGFEDVTITVTKKDGQIHFVSAKQKQ
B2: human hemoglobin, heme-loaded (holo-Hb) (complex)
chain 1: not shown
chain 2: not shown

For test [1], the target named is B2. Kind of test: NMR titration.
In test [2] the target is T1, Shr^H1H2 (Shr residues S26 to Q285, …). Briefly: SEC-MALS + other: SEC-SAXS.

As for B1, the binding result in test [1] is on record as “binds”.

By stoichiometry N is commonly meant a count of units in the complex or per binding partner. Turning to B2, the “stoichiometry N” value in test [2] was determined as 2 Shr^H1H2 per Hb tetramer.
